Results taken from patent US20220324969A1 (MYTHIC THERAPEUTICS, published 2022).
Positions count from the first letter of the chain named. Names and notes keep the numbering of the source.

B1: MYT1335 (antibody, V domains shown)
VH: QVQLVQSGAEVKKPGASVKVSCKASHYTFTNYDINWVRQAPGQGLEWIGWIYPGDGSTKYNEKFKAKATLTADTSTSTAYMELRSLRSDDTAVYYCASGYEDAMDYWGQGTTVTVSS
VL: DIQMTQSPSSLSASVGDRVTINCKASQDINSYLSWFQQKPGKAPKTLIYRANRLVDGVPSRFSGSGSGQDYTLTISSLQPEDFATYYCLQYDEFPLTFGGGTKVEIK
notes: IgG; vadastuximab VH variant #1 (G26H)
B2: MYT1338 (antibody, V domains shown)
VH: B1 VH with H26G, F29H
VL: B1 VL
notes: IgG; vadastuximab VH variant #4 (F29H)
B3: MYT1357 (antibody, V domains shown)
VH: B1 VH with H26G, E62H
VL: B1 VL
notes: IgG; vadastuximab VH variant #23 (E62H)
B4: MYT1352 (antibody, V domains shown)
VH: B1 VH with H26G, S57H
VL: B1 VL
notes: IgG; vadastuximab VH variant #18 (S57H)
B5: MYT1339 (antibody, V domains shown)
VH: B1 VH with H26G, T30H
VL: B1 VL
notes: IgG; vadastuximab VH variant #5 (T30H)
B6: MYT1351 (antibody, V domains shown)
VH: B1 VH with H26G, G56H
VL: B1 VL
notes: IgG; vadastuximab VH variant #17 (G56H)
B7: MYT1346 (antibody, V domains shown)
VH: B1 VH with H26G, I51H
VL: B1 VL
notes: IgG; vadastuximab VH variant #12 (I51H)
B8: MYT1345 (antibody, V domains shown)
VH: B1 VH with H26G, W50H
VL: B1 VL
notes: IgG; vadastuximab VH variant #11 (W50H)
B9: MYT1361 (antibody, V domains shown)
VH: B1 VH with H26G, A66H
VL: B1 VL
notes: IgG; vadastuximab VH variant #27 (A66H)
B10: MYT1336 (antibody, V domains shown)
VH: B1 VH with H26G, Y27H
VL: B1 VL
notes: IgG; vadastuximab VH variant #2 (Y27H)
B11: MYT1353 (antibody, V domains shown)
VH: B1 VH with H26G, T58H
VL: B1 VL
notes: IgG; vadastuximab VH variant #19 (T58H)
B12: MYT1360 (antibody, V domains shown)
VH: B1 VH with H26G, K65H
VL: B1 VL
notes: IgG; vadastuximab VH variant #26 (K65H)
B13: MYT1370 (antibody, V domains shown)
VH: B1 VH with H26G, D105H
VL: B1 VL
notes: IgG; vadastuximab VH variant #36 (D105H)
B14: MYT1365 (antibody, V domains shown)
VH: B1 VH with H26G, Y100H
VL: B1 VL
notes: IgG; vadastuximab VH variant #31 (Y100H)
B15: MYT1356 (antibody, V domains shown)
VH: B1 VH with H26G, N61H
VL: B1 VL
notes: IgG; vadastuximab VH variant #22 (N61H)
B16: MYT1371 (antibody, V domains shown)
VH: B1 VH with H26G, Y106H
VL: B1 VL
notes: IgG; vadastuximab VH variant #37 (Y106H)
B17: MYT1340 (antibody, V domains shown)
VH: B1 VH with H26G, N31H
VL: B1 VL
notes: IgG; vadastuximab VH variant #6 (N31H)
B18: MYT1341 (antibody, V domains shown)
VH: B1 VH with H26G, Y32H
VL: B1 VL
notes: IgG; vadastuximab VH variant #7 (Y32H)
B19: MYT1347 (antibody, V domains shown)
VH: B1 VH with H26G, Y52H
VL: B1 VL
notes: IgG; vadastuximab VH variant #13 (Y52H)
B20: MYT1366 (antibody, V domains shown)
VH: B1 VH with H26G, E101H
VL: B1 VL
notes: IgG; vadastuximab VH variant #32 (E101H)
B21: MYT1363 (antibody, V domains shown)
VH: B1 VH with H26G, S98H
VL: B1 VL
notes: IgG; vadastuximab VH variant #29 (S98H)
B22: MYT1343 (antibody, V domains shown)
VH: B1 VH with H26G, I34H
VL: B1 VL
notes: IgG; vadastuximab VH variant #9 (I34H)
B23: MYT2649 (antibody, V domains shown)
VH: B1 VH with H26G, F29H, T30H
VL: B1 VL
notes: IgG; vadastuximab VH combination #1 (F29H+T30H)
B24: MYT1355 (antibody, V domains shown)
VH: B1 VH with H26G, Y60H
VL: B1 VL
notes: IgG; vadastuximab VH variant #21 (Y60H)
B25: MYT1337 (antibody, V domains shown)
VH: B1 VH with H26G, T28H
VL: B1 VL
notes: IgG; vadastuximab VH variant #3 (T28H)
B26: MYT1349 (antibody, V domains shown)
VH: B1 VH with H26G, G54H
VL: B1 VL
notes: IgG; vadastuximab VH variant #15 (G54H)
B27: MYT1354 (antibody, V domains shown)
VH: B1 VH with H26G, K59H
VL: B1 VL
notes: IgG; vadastuximab VH variant #20 (K59H)
B28: MYT1348 (antibody, V domains shown)
VH: B1 VH with H26G, P53H
VL: B1 VL
notes: IgG; vadastuximab VH variant #14 (P53H)
B29: MYT1350 (antibody, V domains shown)
VH: B1 VH with H26G, D55H
VL: B1 VL
notes: IgG; vadastuximab VH variant #16 (D55H)
B30: MYT1359 (antibody, V domains shown)
VH: B1 VH with H26G, F64H
VL: B1 VL
notes: IgG; vadastuximab VH variant #25 (F64H)
B31: MYT1358 (antibody, V domains shown)
VH: B1 VH with H26G, K63H
VL: B1 VL
notes: IgG; vadastuximab VH variant #24 (K63H)
B32: MYT2635 (antibody, V domains shown)
VH: QVQLQQPGAEVVKPGASVKMSCKASGYTFTSYYIHWIKQTPGQGLEWVGVIYPGNDDISYNQKFQGKATLTADKSSTTAYMQLSSLTSEDSAVYYCAREVRLRYFDVWGQGTTVTVSS
VL: EIVLTQSPGSLAVSPGERVTMSCKSSQSVFFSSSQKNYLAWYQQIPGQSPRLLIYWHSTRESGVPDRFTGSGSGTDFTLTISSVQPEDLAIYYCHQYLSSRTFGQGTKLEIK
notes: IgG; IMGN779 VL variant #19 (A57H)
B33: MYT2648 (antibody, V domains shown)
VH: B32 VH
VL: B32 VL with H57A, T102H
notes: IgG; IMGN779 VL variant #32 (T102H)
B34: MYT2641 (antibody, V domains shown)
VH: B32 VH
VL: B32 VL with H57A, H95A
notes: IgG; IMGN779 VL variant #25 (H95A)
B35: MYT2645 (antibody, V domains shown)
VH: B32 VH
VL: B32 VL with H57A, S99H
notes: IgG; IMGN779 VL variant #29 (S99H)
B36: MYT2640 (antibody, V domains shown)
VH: B32 VH
VL: B32 VL with H57A, S62H
notes: IgG; IMGN779 VL variant #24 (S62H)
B37: MYT2642 (antibody, V domains shown)
VH: B32 VH
VL: B32 VL with H57A, Q96H
notes: IgG; IMGN779 VL variant #26 (Q96H)
B38: MYT2646 (antibody, V domains shown)
VH: B32 VH
VL: B32 VL with H57A, S100H
notes: IgG; IMGN779 VL variant #30 (S100H)
B39: MYT2643 (antibody, V domains shown)
VH: B32 VH
VL: B32 VL with H57A, Y97H
notes: IgG; IMGN779 VL variant #27 (Y97H)
B40: MYT2647 (antibody, V domains shown)
VH: B32 VH
VL: B32 VL with H57A, R101H
notes: IgG; IMGN779 VL variant #31 (R101H)
B41: MYT2636 (antibody, V domains shown)
VH: B32 VH
VL: B32 VL with H57A, S58H
notes: IgG; IMGN779 VL variant #20 (S58H)
B42: MYT2639 (antibody, V domains shown)
VH: B32 VH
VL: B32 VL with H57A, E61H
notes: IgG; IMGN779 VL variant #23 (E61H)
B43: MYT2638 (antibody, V domains shown)
VH: B32 VH
VL: B32 VL with H57A, R60H
notes: IgG; IMGN779 VL variant #22 (R60H)
B44: MYT2644 (antibody, V domains shown)
VH: B32 VH
VL: B32 VL with H57A, L98H
notes: IgG; IMGN779 VL variant #28 (L98H)
B45: MYT2637 (antibody, V domains shown)
VH: B32 VH
VL: B32 VL with H57A, T59H
notes: IgG; IMGN779 VL variant #21 (T59H)

Each binder was assayed against CD33 (Sino Biological, Cat #12238-H08H) (UniProt P20138 18-259) (assay: BLI, IgG captured on anti-human Fc sensor, 50 nM CD33, pH 7.4 vs pH 5.4).
Sequence of CD33 (Sino Biological, Cat #12238-H08H) (P20138 18-259 limits assumed): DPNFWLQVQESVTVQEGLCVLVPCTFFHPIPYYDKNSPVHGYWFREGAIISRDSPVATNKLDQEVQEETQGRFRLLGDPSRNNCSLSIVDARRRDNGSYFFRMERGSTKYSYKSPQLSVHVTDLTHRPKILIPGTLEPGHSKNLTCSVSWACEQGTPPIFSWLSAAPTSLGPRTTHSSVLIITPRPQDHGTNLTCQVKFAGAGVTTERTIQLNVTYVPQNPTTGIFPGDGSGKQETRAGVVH

binding result | Binder
binds | B1
binds | B2
binds | B3
binds | B4
binds | B5
binds | B6
binds | B7
binds | B8
binds | B9
binds | B10
binds | B11
binds | B12
binds | B13
binds | B14
binds | B15
binds | B16
binds | B17
binds | B18
binds | B19
binds | B20
binds | B21
binds | B22
binds | B23

binding result | Binder
binds | B24
binds | B25
binds | B26
binds | B27
binds | B28
binds | B29
binds | B30
binds | B31
binds | B32
binds | B33
binds | B34
binds | B35
binds | B36
binds | B37
binds | B38
binds | B39
binds | B40
binds | B41
binds | B42
binds | B43
binds | B44
binds | B45
